From patent publication US20220323445A1, “REDUCING IMMUNOGENICITY TO PEGLOTICASE” (Horizon Therapeutics Ireland DAC, priority 2020, published 2022)

Tested on: serum uric acid (sUA)
Assay: Serum uric acid (sUA) levels and sUA responders, open-label study of pegloticase with MTX (NCT03635957)
Assay type: in vivo, human
Description: The primary objective is to estimate the response rate during Month 6 (Weeks 20, 22, and 24), as measured by the sustained normalization of serum uric acid (SUA) to <6 mg/dL for at least 80% of the time during Month 6 in subjects receiving KXX with MTX.
The primary efficacy outcome endpoint is the sustained normalization of SUA to <6 mg/dL for at least 80% of the time during month 6 (weeks 20, 22, and 24) in subjects receiving KXX with MTX. This is slightly below the urate solubility threshold and this threshold has been the accepted standard for nearly all modern gout trials. Participants who achieve this endpoint were classified as “responders.” Serum uric acid (SUA) responders may also be defined as participants achieving and maintaining SUA <6 mg/dL for at least 80% of the time during Month 6 (Weeks 20, 22, and 24).
Blood samples may be collected prior to each pegloticase infusion for measurement of SUA levels using the Beckman Coulter AU System Uric Acid procedure. Participants were declared “non-responders” if there were SUA measures >6 mg/dL at 2 consecutive study visits beginning with the week 2 visit. […] If the SUA goal is not maintained before or at the 12-week mark, it was assumed that the participant had developed clinically relevant anti-pegloticase antibody and they received no further infusions. This assumption and subsequent discontinuation of pegloticase was consistent with the protocol of large phase III randomized controlled trials and the product label. A formal stopping rule was 2 occasions of SUA levels of greater than 6 mg/dL.
Clinical Chemistry—Blood samples were collected prior to each pegloticase infusion for measurement of SUA levels (primary efficacy parameter) using the Beckman Coulter AU System Uric Acid procedure. In this procedure uric acid is converted to hydrogen peroxide. Hydrogen peroxide reacts with reagent to produce a chromophore which is read bichromatically at 660/800 nm. The amount of dye formed is proportional to the uric acid concentration in the sample.
Serum samples for measurement of SUA levels were collected at the Screening Visit, the Week −4 Visit (prior to the first dose of MTX), and the Week −2 Visit during the MTX Run-in Period; within 48 hours prior to each pegloticase infusion and after the end of each pegloticase infusion prior to discharge from the site during the Pegloticase+IMM Period; at the non-infusion Week 52/End of Study/Early Termination Visits and at the Post Treatment 3 and 6 Month Follow-up Visits. Additional serum samples for SUA levels were collected at optional non-infusion (Frequent Sampling) Visits at Weeks 1 and 7. […] Subjects with SUA level >6 mg/dL at 2 consecutive visits beginning at Week 2 visit discontinued treatment, completed the End of Pegloticase Infusion Visit procedures within 2 weeks and continued the subject visits according to the protocol (without treatment).
Efficacy analyses were performed using the modified intention-to-treat (mITT) population, defined as all enrolled subjects who received ≥1 dose of pegloticase. The proportion of Month 6 responders was summarized, along with a 95% confidence interval for the proportion. The proportion of Month 3 and overall (Months 3 and 6 combined) responders was analyzed similarly.
A subject was declared a non-responder if the subject had SUA level >6 mg/dL at 2 consecutive study visits beginning with the Week 2 Visit. In addition, a subject who withdraws from study treatment for any reason after the first dose of pegloticase in the KXX+MTX Period and prior to Month 6 (for the primary endpoint) or Month 3 (for the secondary endpoint) was considered a non-responder if SUA values were not collected at the planned time points.
Patients were administered oral MTX (15 mg/week) and folate (1 mg/day) 4 weeks prior to the first pegloticase infusion (Day 1) and throughout the pegloticase treatment period. […]

[1] = Week 6 - Pre-Infusion, Month 6 sUA Responders
[2] = Week 6 - Pre-Infusion, mITT, n=13
[3] = Week 8 - Post-Infusion, Month 6 sUA Non-Responders
[4] = Week 8 - Post-Infusion, Month 6 sUA Responders
[5] = Week 8 - Post-Infusion, mITT, n=12
[6] = Week 8 - Pre-Infusion, Month 6 sUA Non-Responders
[7] = Week 8 - Pre-Infusion, Month 6 sUA Responders
[8] = Week 8 - Pre-Infusion, mITT, n=12
[9] = Week 10 - Post-Infusion, Month 6 sUA Responders
[10] = Week 10 - Post-Infusion, mITT, n=11
[11] = Week 10 - Pre-Infusion, Month 6 sUA Non-Responders
[12] = Week 10 - Pre-Infusion, Month 6 sUA Responders
[13] = Week 10 - Pre-Infusion, mITT, n=12
[14] = Week 12 - Post-Infusion, Month 6 sUA Responders

B1: pegloticase (protein)
chain: TYKKNDEVEFVRTGYGKDMIKVLHIQRDGKYHSIKEVATTVQLTLSSKKDYLHGDNSDVIPTDTIKNTVNVLAKFKGIKSIETFAVTICEHFLSSFKHVIRAQVYVEEVPWKRFEKNGVKHVHAFIYTPTGTHFCEVEQIRNGPPVIHSGIKDLKVLKTTQSGFEGFIKDQFTTLPEVKDRCFATQVYCKWRYHQGRDVDFEATWDTVRSIVLQKFAGPYDKGEYSPSVQKTLYDIQVLTLGQVPEIEDMEISLPNIHYLNIDMSKMGLINKEEVLLPLDNPYGKITGTVKRKLSSRL
modifications: monomethoxy PEG conjugated; Krystexxa Sequence
notes: covalent conjugate of uricase produced by a genetically modified strain of Escherichia coli and monomethoxypoly (ethylene glycol)
sUA < 6 mg/dL, % [1]: (100%) | sUA Change from Baseline, Mean [1]: -8.97 mg/dL | sUA Change from Baseline, Median [1]: -8.80 mg/dL | sUA Observed, Mean [1]: 0.30 mg/dL | sUA Observed, Median [1]: 0.30 mg/dL | sUA < 6 mg/dL, n (%) [2]: 12 (92.3%) | sUA Change from Baseline, Mean (SD) [2]: −8.31 (3.538) mg/dL | sUA Change from Baseline, Median [2]: -8.80 mg/dL | sUA Observed, Mean (SD) [2]: 0.91 (2.191) mg/dL | sUA Observed, Median [2]: 0.30 mg/dL | sUA < 6 mg/dL, % (Week 7, Month 6 sUA Responders): (100%) | sUA Change from Baseline, Mean (Week 7, Month 6 sUA Responders): -8.90 mg/dL | sUA Observed, Mean (Week 7, Month 6 sUA Responders): 0.30 mg/dL | sUA < 6 mg/dL, n (%) (Week 7, mITT, n=4): 4 (100%) | sUA Change from Baseline, Mean (SD) (Week 7, mITT, n=4): −8.90 (4.755) mg/dL | sUA Change from Baseline, Median (Week 7, mITT, n=4): -7.85 mg/dL | sUA Observed, Mean (SD) (Week 7, mITT, n=4): 0.30 (0.000) mg/dL | sUA Observed, Median (Week 7, mITT, n=4): 0.30 mg/dL | sUA < 6 mg/dL, % [3]: (100%) | sUA Change from Baseline, Mean [3]: -9.10 mg/dL | sUA Observed, Mean [3]: 0.30 mg/dL | sUA < 6 mg/dL, % [4]: (100%) | sUA Change from Baseline, Mean [4]: -8.97 mg/dL | sUA Observed, Mean [4]: 0.30 mg/dL | sUA < 6 mg/dL, n (%) [5]: 12 (100%) | sUA Change from Baseline, Mean (SD) [5]: −8.98 (2.679) mg/dL | sUA Change from Baseline, Median [5]: -8.95 mg/dL | sUA Observed, Mean (SD) [5]: 0.30 (0.000) mg/dL | sUA Observed, Median [5]: 0.30 mg/dL | sUA Change from Baseline, Mean [6]: -0.50 mg/dL | sUA Observed, Mean [6]: 8.90 mg/dL | sUA < 6 mg/dL, % [7]: (100%) | sUA Change from Baseline, Mean [7]: -8.91 mg/dL | sUA Observed, Mean [7]: 0.37 mg/dL | sUA < 6 mg/dL, n (%) [8]: 11 (91.7%) | sUA Change from Baseline, Mean (SD) [8]: −8.20 (3.624) mg/dL | sUA Change from Baseline, Median [8]: -8.33 mg/dL | sUA Observed, Mean (SD) [8]: 1.08 (2.472) mg/dL | sUA Observed, Median [8]: 0.30 mg/dL | sUA < 6 mg/dL, % [9]: (100%) | sUA Change from Baseline, Mean [9]: -8.97 mg/dL | sUA Change from Baseline, Median [9]: -8.80 mg/dL | sUA Observed, Mean [9]: 0.30 mg/dL | sUA Observed, Median [9]: 0.30 mg/dL | sUA < 6 mg/dL, n (%) [10]: 11 (100%) | sUA Change from Baseline, Mean (SD) [10]: −8.97 (2.810) mg/dL | sUA Change from Baseline, Median [10]: -8.80 mg/dL | sUA Observed, Mean (SD) [10]: 0.30 (0.000) mg/dL | sUA Observed, Median [10]: 0.30 mg/dL | sUA Change from Baseline, Mean [11]: -1.30 mg/dL | sUA Observed, Mean [11]: 8.10 mg/dL | sUA < 6 mg/dL, % [12]: (100%) | sUA Change from Baseline, Mean [12]: -8.97 mg/dL | sUA Observed, Mean [12]: 0.30 mg/dL | sUA < 6 mg/dL, n (%) [13]: 11 (91.7%) | sUA Change from Baseline, Mean (SD) [13]: −8.33 (3.476) mg/dL | sUA Change from Baseline, Median [13]: -8.70 mg/dL | sUA Observed, Mean (SD) [13]: 0.95 (2.252) mg/dL | sUA Observed, Median [13]: 0.30 mg/dL | sUA < 6 mg/dL, % [14]: (100%) | sUA Change from Baseline, Mean [14]: -9.13 mg/dL | sUA Change from Baseline, Median [14]: -9.05 mg/dL | sUA Observed, Mean [14]: 0.30 mg/dL | sUA Observed, Median [14]: 0.30 mg/dL | sUA < 6 mg/dL, n (%) (Week 12 - Post-Infusion, mITT, n=10): 10 (100%)
